Laboratory results published in patent publication US11214614B2, “LTBP complex-specific inhibitors of TGFβ and uses thereof” (Scholar Rock, Inc., priority 2019, dated 2022).

What was measured:
[1] = target: T1, huLTBP1 proTGFβ1 (Homo sapiens, UniProt P01137+Q14766); assay: Octet (BLI) binding, IgG captured on AHC tips, antigen at 100 nM; conditions: Table 9, cycle 3, IgG1-agly; for Hu LTBP1-proTGFβ1 Kon: 1:1 fit; for Hu LTBP1-proTGFβ1 Koff: 5-minute dissociation
Experimental: (§1) Suitable methods for in vitro binding assays to determine the parameters of binding kinetics include Bio-layer Interferometry (BLI)-based assays such as Octet, and surface plasmon resonance (SPR)-based assays, such as Biacore systems (see, for example: biophysics.bioc.cam.ac.uk/wp-content/uploads/2011/02/Biacore_assay_handbook.pdf).
(§2) The affinity of SR-AB10, SR-AB2 and SR-AB13 was measured by Octet assay. The protocol used to measure the affinity of the antibodies to the complexes provided herein is summarized below.
(§3) • 96 well black polypropylene plates • AHC Octet tips (anti-human IgG Fc capture tips) (FortdBio) • 10× kinetics buffer (FortdBio) (diluted to 1× in PBS) • reiner Bio-One 96-Well Half Area Microplates (VWR cat #82050-044) Procedure:
(§4) Notes: The volume within each well during an Octet experiment is 100 uL.
(§5) A shake speed of 1000 rpm is used for all assay steps.
(§6) Pre-Wet Tips: • Biosensors must be pre-wet in 1× kinetics buffer (lx KB) for at least 10 minutes before starting an experiment. This can be done inside the Octet or on the bench.
(§7) Loading: • Tips are baselined in 1× KB for 1 minute before loading. • AHC tips are loaded with antibody at a concentration of 1 μg/mL (˜7 nM) for 3 minutes. A limit is set so that loading will stop when any one sensor reaches a response of 1 nanometer. • Tips are baselined in buffer for 1 minute after loading. The antibody should not dissociate from the tips during this time.
(§8) Antigen Association: • TGFβ1 in complex with various presentation molecules was associated to the immobilized antibodies at a single concentration of 100 nM in 1× KB.
(§9) Antibody Dissociation: • Dissociation in 1×KB was performed for 3 minutes.
(§10) Data Analysis using ForteBio Data analysis software 8.2: • Processing: align Y axis to last 5 seconds of baseline, perform inter-step correction with align to dissociation, and perform Savitzky-Golay filtering. • Analysis: 1:1 fitting model is utilized. Fitting is local and full. […] Results:
(§11) LTBP complex-specific antibodies from the first round of affinity maturation/optimization (SR-AB14, SR-AB16, SR-AB17, SR-AB18, SR-AB19) were selected for a second round of affinity maturation/optimization (i.e., CDR-H3 mutagenesis as described herein) and particular progeny antibodies (SR-AB20, SR-AB21, SR-AB22, SR-AB23, SR-AB24, SR-AB25, SR-AB26, SR-AB27, SR-AB28, and SR-AB29) were assessed for their ability to bind various proTGFβl constructs. Binding affinities of the optimized antibodies were measured by Octet against human LTBP1-proTGFβI, human LTBP3-proTGFb1, mouse LTBP1-proTGFβ1, mouse LTBP3-proTGFb1, and GARP-proTGFβl complexes, essentially as described in Example 6. In brief, test antibodies were immobilized to the surface of anti-human Fc capture biosensors (AHC) (ForteBio®) and binding was then tested against the various TGFβ1 complexes at a single concentration of 100 nM to assess binding affinities. The antigens were allowed to associate for 3 minutes followed by a 5-minute dissociation. Kinetics buffer (ForteBio®) was used throughout the experiment, and KD was determined using a 1:1 fitting model for each antibody antigen pair.
Binding affinities of the optimized antibodies were measured by Octet against human LTBP1-proTGFβ1, human LTBP3-proTGFβ1, mouse LTBP1-proTGFβ1, mouse LTBP3-proTGFβ1, and GARP-proTGFβ1 complexes, essentially as described in Example 6. In brief, test antibodies were immobilized to the surface of anti-human Fc capture biosensors (AHC) (ForteBio®) and binding was then tested against the various TGFβ1 complexes at a single concentration of 100 nM to assess binding affinities. The antigens were allowed to associate for 3 minutes followed by a 5-minute dissociation. Kinetics buffer (ForteBio®) was used throughout the experiment, and KD was determined using a 1:1 fitting model for each antibody antigen pair. […]

[2] = target: huLTBP3 proTGFβ1 (Homo sapiens, UniProt P01137+Q9NS15); assay: as above; conditions: Table 9, cycle 3, IgG1-agly; for Hu LTBP3-proTGFβ1 Kon: 1:1 fit; for Hu LTBP3-proTGFβ1 Koff: 5-minute dissociation
Chain of huLTBP3 proTGFβ1 (P01137 30-390): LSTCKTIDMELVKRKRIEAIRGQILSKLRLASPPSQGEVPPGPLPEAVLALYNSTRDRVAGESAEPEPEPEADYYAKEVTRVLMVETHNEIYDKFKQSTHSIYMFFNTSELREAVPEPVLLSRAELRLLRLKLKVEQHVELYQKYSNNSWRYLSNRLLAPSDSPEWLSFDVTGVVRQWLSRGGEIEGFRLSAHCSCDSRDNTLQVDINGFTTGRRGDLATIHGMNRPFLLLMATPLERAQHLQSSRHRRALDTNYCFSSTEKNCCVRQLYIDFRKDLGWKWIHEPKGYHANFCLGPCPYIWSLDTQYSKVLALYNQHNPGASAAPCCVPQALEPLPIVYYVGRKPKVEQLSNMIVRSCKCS
Chain of huLTBP3 proTGFβ1 (Q9NS15 44-1303): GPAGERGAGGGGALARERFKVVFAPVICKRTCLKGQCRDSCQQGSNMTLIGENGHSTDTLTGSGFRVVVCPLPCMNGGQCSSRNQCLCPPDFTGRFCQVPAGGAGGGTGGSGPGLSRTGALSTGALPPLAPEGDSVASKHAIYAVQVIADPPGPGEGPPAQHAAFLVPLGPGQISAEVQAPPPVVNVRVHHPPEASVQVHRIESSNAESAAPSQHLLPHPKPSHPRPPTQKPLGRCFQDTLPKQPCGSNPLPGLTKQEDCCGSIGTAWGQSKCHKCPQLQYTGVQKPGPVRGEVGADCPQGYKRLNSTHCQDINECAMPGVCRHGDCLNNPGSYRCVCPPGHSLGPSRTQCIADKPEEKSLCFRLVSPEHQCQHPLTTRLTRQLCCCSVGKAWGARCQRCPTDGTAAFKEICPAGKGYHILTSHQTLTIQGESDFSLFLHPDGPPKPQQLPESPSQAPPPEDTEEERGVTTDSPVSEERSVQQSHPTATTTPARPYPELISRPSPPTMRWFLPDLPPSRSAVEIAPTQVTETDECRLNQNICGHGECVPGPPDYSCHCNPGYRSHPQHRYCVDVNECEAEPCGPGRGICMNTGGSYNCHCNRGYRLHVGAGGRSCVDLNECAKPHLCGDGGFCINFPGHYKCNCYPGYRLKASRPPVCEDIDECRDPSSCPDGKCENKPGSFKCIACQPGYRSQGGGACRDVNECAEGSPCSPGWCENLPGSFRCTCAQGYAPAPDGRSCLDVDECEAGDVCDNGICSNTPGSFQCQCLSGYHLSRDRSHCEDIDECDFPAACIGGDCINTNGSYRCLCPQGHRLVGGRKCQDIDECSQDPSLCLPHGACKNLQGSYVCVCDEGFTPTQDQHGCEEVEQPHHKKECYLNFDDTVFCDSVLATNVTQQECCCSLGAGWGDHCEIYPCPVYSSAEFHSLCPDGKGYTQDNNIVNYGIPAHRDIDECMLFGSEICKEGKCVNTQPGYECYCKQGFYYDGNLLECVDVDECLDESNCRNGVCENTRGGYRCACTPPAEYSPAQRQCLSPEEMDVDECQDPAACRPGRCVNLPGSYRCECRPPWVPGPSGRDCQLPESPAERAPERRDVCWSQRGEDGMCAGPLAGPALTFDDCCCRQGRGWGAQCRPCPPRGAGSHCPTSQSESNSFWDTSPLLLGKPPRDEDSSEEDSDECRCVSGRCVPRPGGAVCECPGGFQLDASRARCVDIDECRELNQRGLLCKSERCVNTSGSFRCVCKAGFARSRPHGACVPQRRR
Experimental: as §1, §2, §3, §4, §5, §6, §7, §8, §9, §10, §11
Binding affinities of the optimized antibodies were measured by Octet against human LTBP1-proTGFβ1, human LTBP3-proTGFβ1, mouse LTBP1-proTGFβ1, mouse LTBP3-proTGFβ1, and GARP-proTGFβ1 complexes, essentially as described in Example 6. In brief, test antibodies were immobilized to the surface of anti-human Fc capture biosensors (AHC) (ForteBio®) and binding was then tested against the various TGFβ1 complexes at a single concentration of 100 nM to assess binding affinities. The antigens were allowed to associate for 3 minutes followed by a 5-minute dissociation. Kinetics buffer (ForteBio®) was used throughout the experiment, and KD was determined using a 1:1 fitting model for each antibody antigen pair.

[3] = target: T1, huLTBP1 proTGFβ1; assay: SPR (Biacore 8K) monovalent binding kinetics of Fabs, biotinylated antigen captured; set-up: biotin (complex biotinylated)
Experimental: A Biacore 8K system was employed to determine the monovalent binding affinity and the kinetic parameters for antigen binding of test antibodies. Association and dissociation kinetics of Fab fragments SR-AB42-HuFab, SR-AB63-HuFab and SR-AB43-HuFab to antigen complexes were measured, and resulting ka, kd and KD are provided below. Briefly, the binding kinetics were evaluated by surface plasmon resonance using Biacore 8K (GE Healthcare). Biotinylated capture antigens were immobilized to the chip (10 nM, ˜200 RU loading). A Biotin CAPture sensor chip was used to capture the biotinylated antigens. Fabs at 10, 5, 2.5, 1.25, and 0.6 nM concentrations were injected over the captured antigens. 0 nM was used as a reference. Affinities of LTBP antibodies to GARP and LRRC33 were confirmed using higher concentration of Fabs (100, 50, 25, 12.5, 6.25 nM). 0 nM was used as a reference. Multi-cycle kinetics was employed where each analyte concentration was injected in a separate cycle and the sensor chip surface was regenerated after each cycle. All the assays were carried out in freshly prepared 1×HBS-EP+buffer (10 mM HEPES, 150 mM NaCl, 3 mM EDTA, 0.05% Tween20, pH 7.4). Data were fit globally to a 1:1 binding model to obtain the kinetic parameters. The sensorgram for 0 nM analyte concentration was used as reference.
• 96 well plates—Greinerbio-one REF 650101 • Microplate Foils—GE Healthcare—CAT #28-9758-16 • Biotin CAPture Kit GE Healthcare product number 28920233 • Biacore running buffer—supplied as a 20× solution, diluted in Milli-Q water, TEKnova CAT #H8022 Method:
These experiments were performed using the Biacore 8K using the method “multi-cycle kinetics/affinity using Biotin CAPture kit.”
Data collection rate was set to 10 Hz and the Biotin CAPture step was performed for 300 seconds with a flow rate of 2 μL/minute. The Biotin CAPture reagent was used after a 1:5 dilution in 1× Biacore running buffer. Biotinylated ligands (the various complexes of TGFβ1) were utilized at a concentration of 10 nM and were immobilized to the sensor chip for 180 seconds with a flow rate of 10 μL/minute. The analytes, which are each of the Fabs, were tested at 10, 5, 2.5, 1.25, and 0.625 nM with a 0 nM control included. Analyte contact time was 120 seconds and the dissociation time was 900 seconds. The regeneration cycle utilized was 120 seconds with a flow rate of 10 μL/minute.
The evaluation method used was “multi-cycle affinity using capture” and a 1:1 binding model was used. […] Global fits were utilized for every KD determination.

[4] = Fab, huLTBP1 proTGFβ1, SR-AB42-HuFab average of five, SR-AB63-HuFab average of four replicate experiments

T1 sequence (P01137 30-390): as the sequence (P01137 30-390) above
T1 sequence (Q14766 347-1721 limits assumed): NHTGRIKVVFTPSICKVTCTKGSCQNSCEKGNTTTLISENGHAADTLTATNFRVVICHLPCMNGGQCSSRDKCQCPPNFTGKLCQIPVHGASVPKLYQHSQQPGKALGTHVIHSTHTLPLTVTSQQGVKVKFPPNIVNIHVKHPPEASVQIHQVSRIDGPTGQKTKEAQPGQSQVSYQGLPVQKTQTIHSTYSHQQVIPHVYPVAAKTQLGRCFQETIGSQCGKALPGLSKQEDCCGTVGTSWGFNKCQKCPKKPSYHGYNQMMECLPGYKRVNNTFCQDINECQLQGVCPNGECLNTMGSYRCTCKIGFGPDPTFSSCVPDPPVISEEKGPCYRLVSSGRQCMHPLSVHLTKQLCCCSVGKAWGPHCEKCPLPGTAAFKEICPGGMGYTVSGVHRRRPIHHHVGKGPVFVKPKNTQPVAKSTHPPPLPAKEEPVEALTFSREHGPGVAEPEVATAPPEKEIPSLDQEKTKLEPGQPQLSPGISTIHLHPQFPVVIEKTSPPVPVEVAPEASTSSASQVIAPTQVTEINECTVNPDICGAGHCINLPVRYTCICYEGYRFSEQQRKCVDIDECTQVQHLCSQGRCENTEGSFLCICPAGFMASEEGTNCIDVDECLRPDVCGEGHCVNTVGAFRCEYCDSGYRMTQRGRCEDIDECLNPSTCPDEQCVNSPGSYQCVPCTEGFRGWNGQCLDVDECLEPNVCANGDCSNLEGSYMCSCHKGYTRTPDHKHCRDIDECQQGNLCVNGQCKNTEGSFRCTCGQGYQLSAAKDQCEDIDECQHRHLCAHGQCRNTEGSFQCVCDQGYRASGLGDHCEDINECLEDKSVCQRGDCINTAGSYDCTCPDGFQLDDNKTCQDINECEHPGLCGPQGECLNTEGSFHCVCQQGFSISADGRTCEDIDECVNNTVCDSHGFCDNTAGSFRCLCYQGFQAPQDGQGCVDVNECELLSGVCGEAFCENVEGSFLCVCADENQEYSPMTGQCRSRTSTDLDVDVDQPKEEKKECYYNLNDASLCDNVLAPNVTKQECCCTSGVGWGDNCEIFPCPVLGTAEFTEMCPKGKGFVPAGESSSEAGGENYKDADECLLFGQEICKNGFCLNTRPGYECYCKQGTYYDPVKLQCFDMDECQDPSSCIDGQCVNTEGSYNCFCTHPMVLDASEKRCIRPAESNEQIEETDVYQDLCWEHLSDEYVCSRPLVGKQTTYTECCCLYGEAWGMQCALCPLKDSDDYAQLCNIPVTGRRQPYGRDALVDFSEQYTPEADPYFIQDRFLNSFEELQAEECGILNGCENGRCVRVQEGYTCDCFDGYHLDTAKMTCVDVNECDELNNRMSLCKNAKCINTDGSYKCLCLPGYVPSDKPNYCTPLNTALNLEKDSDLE

B1: SR-AB34: cycle 3 light chain-optimized antibody, lineage SR-AB22; CDRs SEQ ID NO: 130-135 (antibody, V domains shown)
VH: QVQLVESGGGVVQPGRSLRLSCAASGFTFRSYVMHWVRQAPGKGLEWVAVISHEGSLKYYADSVKGRFTISRDNSKNTLYLQMNSLRAEDTAVYYCAVPRIAARRGGFGYWGQGTLVTVSS
VL: NFMLTQPHSVSESPGKTVTISCTRSSGNIDNNYVQWYQQRPGSSPTTVIYEDNQRPSGVPDRFSGSIDSSSNSASLTISGLKTEDEADYYCQSYDYDAQGVVFGGGTKLTVL
Hu LTBP1-proTGFβ1 Kon [1]: 259000 M⁻¹ s⁻¹
Hu LTBP1-proTGFβ1 Koff [1]: 6e-05 s⁻¹
Hu LTBP3-proTGFβ1 Kon [2]: 372000 M⁻¹ s⁻¹
Hu LTBP3-proTGFβ1 Koff [2]: 6.68e-05 s⁻¹

B2: LTBP-SR-AB42 HuFab (antibody, V domains shown)
VH: QVQLVESGGGVVQPGRSLRLSCAASGFTFRSYVMHWVRQAPGKGLEWVAVISHEGSLKYYADSVKGRFTISRDNSKNTLYLQMNSLRAEDTAVYYCARPRIAARRGGFGYWGQGTLVTVSS
VL: NFMLTQPHSVSESPGKTVTISCTRSSGNIDNNYVQWYQQRPGSSPTTVIYEDNQRPSGVPDRFSGSIDSSSNSASLTISGLKTEDEADYYCQSYDYDTQGVVFGGGTKLTVL
Kd ([3]; Table 27, Hu LTBP1-ProTGFβ1): 380 pM

B3: SR-AB37: cycle 3 light chain-optimized antibody, lineage SR-AB22; CDRs SEQ ID NO: 136-141 (antibody, V domains shown)
VH: QVQLVESGGGVVQPGRSLRLSCAASGFTFRSYVMHWVRQAPGKGLEWVAVISHEGSLKYYADSVKGRFTISRDNSKNTLYLQMNSLRAEDTAVYYCAVPRIAARRGGFGYWGQGTLVTVSS
VL: NFMLTQPHSVSESPGKTVTISCTRSSGLIDDNYVQWYQQRPGSSPTTVIYEDNQRPSGVPDRFSGSIDSSSNSASLTISGLKTEDEADYYCQSYDSDLQRVVFGGGTKLTVL
Hu LTBP1-proTGFβ1 Kon [1]: 360000 M⁻¹ s⁻¹
Hu LTBP1-proTGFβ1 Koff [1]: 0.000118 s⁻¹
Hu LTBP3-proTGFβ1 Kon [2]: 545000 M⁻¹ s⁻¹
Hu LTBP3-proTGFβ1 Koff [2]: 7.58e-05 s⁻¹

B4: SR-AB38: cycle 3 light chain-optimized antibody, lineage SR-AB22; CDRs SEQ ID NO: 142-147 (antibody, V domains shown)
VH: QVQLVESGGGVVQPGRSLRLSCAASGFTFRSYVMHWVRQAPGKGLEWVAVISHEGSLKYYADSVKGRFTISRDNSKNTLYLQMNSLRAEDTAVYYCAVPRIAARRGGFGYWGQGTLVTVSS
VL: NFMLTQPHSVSESPGKTVTISCTRSSGSIDNNYVQWYQQRPGSSPTTVIYEDFIRPSGVPDRFSGSIDSSSNSASLTISGLKTEDEADYYCQSYDDDLQGVVFGGGTKLTVL
Hu LTBP1-proTGFβ1 Kon [1]: 327000 M⁻¹ s⁻¹
Hu LTBP1-proTGFβ1 Koff [1]: 0.000117 s⁻¹
Hu LTBP3-proTGFβ1 Kon [2]: 502000 M⁻¹ s⁻¹
Hu LTBP3-proTGFβ1 Koff [2]: 7.26e-05 s⁻¹

B5: SR-AB47-HuFab (antibody, V domains shown)
VH: QVQLVESGGGVVQPGRSLRLSCAASGFTFRSYVMHWVRQAPGKGLEWVAVISHEGSGKYYADSVKGRFTISRDNSKNTLYLQMNSLRAEDTAVYYCARPRIAARRGGFGSWGQGTLVTVSS
VL: NFMLTQPHSVSESPGKTVTISCTRSSGNIDYNYVQWYQQRPGSSPTTVIYEDNVRPSGVPDRFSGSIDSSSNSASLTISGLKTEDEADYYCQSYDYDNQAVVFGGGTKLTVL
ka [3, 4]: 1.84e+06 M⁻¹ s⁻¹
kd [3, 4]: 0.000136 s⁻¹

B6: SR-AB41: cycle 3 light chain-optimized antibody, lineage SR-AB23; CDRs SEQ ID NO: 160-165 (antibody, V domains shown)
VH: QVQLVESGGGVVQPGRSLRLSCAASGFTFRSYVMHWVRQAPGKGLEWVAVISHEGSLKYYADSVKGRFTISRDNSKNTLYLQMNSLRAEDTAVYYCARPRIAARRGGFGYWGQGTLVTVSS
VL: NFMLTQPHSVSESPGKTVTISCTRSSGNIDNNYVQWYQQRPGSSPTTVIYEDNQRPSGVPDRFSGSIDSSSNSASLTISGLKTEDEADYYCQSYDYDNQAVVFGGGTKLTVL
Hu LTBP1-proTGFβ1 Kon [1]: 203000 M⁻¹ s⁻¹
Hu LTBP1-proTGFβ1 Koff [1]: 6e-05 s⁻¹
Hu LTBP3-proTGFβ1 Kon [2]: 255000 M⁻¹ s⁻¹
Hu LTBP3-proTGFβ1 Koff [2]: 6e-05 s⁻¹

B7: SR-AB39: cycle 3 light chain-optimized antibody, lineage SR-AB22; CDRs SEQ ID NO: 148-153 (antibody, V domains shown)
VH: QVQLVESGGGVVQPGRSLRLSCAASGFTFRSYVMHWVRQAPGKGLEWVAVISHEGSLKYYADSVKGRFTISRDNSKNTLYLQMNSLRAEDTAVYYCAVPRIAARRGGFGYWGQGTLVTVSS
VL: NFMLTQPHSVSESPGKTVTISCTRSSGLIDDNYVQWYQQRPGSSPTTVIYEDAQRPSGVPDRFSGSIDSSSNSASLTISGLKTEDEADYYCQSYDHDEQGVVFGGGTKLTVL
Hu LTBP1-proTGFβ1 Kon [1]: 292000 M⁻¹ s⁻¹
Hu LTBP1-proTGFβ1 Koff [1]: 6e-05 s⁻¹
Hu LTBP3-proTGFβ1 Kon [2]: 441000 M⁻¹ s⁻¹
Hu LTBP3-proTGFβ1 Koff [2]: 6e-05 s⁻¹
